PMC9006252

Biological target: Plasmodium falciparum plasmoredoxin (Plasmodium falciparum)
Assay: SEC; PfPlrx without TCEP, at least partially oxidized

Plasmodium falciparum plasmoredoxin (natural protein)
stoichiometry N: 2
